In publication PMC2873925:

Key:
[1] = biological target: Neisseria meningitidis Opc protein (outer membrane adhesin), on acapsulate Opc+ bacteria of serogroup A strain C751 (Neisseria meningitidis serogroup A strain C751) (UniProt Q7DDI3)
[2] = biological target: Neisseria meningitidis Opc protein, on capsulate Opc+ bacteria of serogroup B strain MC58 (Neisseria meningitidis serogroup B strain MC58)
[3] = biological target: Neisseria meningitidis Opc protein (outer membrane adhesin), on acapsulate Opc+ bacteria of serogroup A strain C751 (Neisseria meningitidis serogroup A strain C751) (UniProt Q7DDI3); assay: depletion from serum by sequential adsorption with whole bacteria, immuno-dot blot of the serum; a serum sample adsorbed sequentially with three fresh live bacterial suspensions, one hour each; remaining activated Vn (mAb 8E6), total Vn and Fn (polyclonal antibodies) by immuno-dot blot and densitometry
[4] = biological target: Neisseria meningitidis Opc protein, on capsulate Opc+ bacteria of serogroup B strain MC58 (Neisseria meningitidis serogroup B strain MC58); assay: as above

Sequence of fibronectin (human), of normal human serum and purified plasma fibronectin, P02751 32-2477 (natural protein) (P02751 32-2477): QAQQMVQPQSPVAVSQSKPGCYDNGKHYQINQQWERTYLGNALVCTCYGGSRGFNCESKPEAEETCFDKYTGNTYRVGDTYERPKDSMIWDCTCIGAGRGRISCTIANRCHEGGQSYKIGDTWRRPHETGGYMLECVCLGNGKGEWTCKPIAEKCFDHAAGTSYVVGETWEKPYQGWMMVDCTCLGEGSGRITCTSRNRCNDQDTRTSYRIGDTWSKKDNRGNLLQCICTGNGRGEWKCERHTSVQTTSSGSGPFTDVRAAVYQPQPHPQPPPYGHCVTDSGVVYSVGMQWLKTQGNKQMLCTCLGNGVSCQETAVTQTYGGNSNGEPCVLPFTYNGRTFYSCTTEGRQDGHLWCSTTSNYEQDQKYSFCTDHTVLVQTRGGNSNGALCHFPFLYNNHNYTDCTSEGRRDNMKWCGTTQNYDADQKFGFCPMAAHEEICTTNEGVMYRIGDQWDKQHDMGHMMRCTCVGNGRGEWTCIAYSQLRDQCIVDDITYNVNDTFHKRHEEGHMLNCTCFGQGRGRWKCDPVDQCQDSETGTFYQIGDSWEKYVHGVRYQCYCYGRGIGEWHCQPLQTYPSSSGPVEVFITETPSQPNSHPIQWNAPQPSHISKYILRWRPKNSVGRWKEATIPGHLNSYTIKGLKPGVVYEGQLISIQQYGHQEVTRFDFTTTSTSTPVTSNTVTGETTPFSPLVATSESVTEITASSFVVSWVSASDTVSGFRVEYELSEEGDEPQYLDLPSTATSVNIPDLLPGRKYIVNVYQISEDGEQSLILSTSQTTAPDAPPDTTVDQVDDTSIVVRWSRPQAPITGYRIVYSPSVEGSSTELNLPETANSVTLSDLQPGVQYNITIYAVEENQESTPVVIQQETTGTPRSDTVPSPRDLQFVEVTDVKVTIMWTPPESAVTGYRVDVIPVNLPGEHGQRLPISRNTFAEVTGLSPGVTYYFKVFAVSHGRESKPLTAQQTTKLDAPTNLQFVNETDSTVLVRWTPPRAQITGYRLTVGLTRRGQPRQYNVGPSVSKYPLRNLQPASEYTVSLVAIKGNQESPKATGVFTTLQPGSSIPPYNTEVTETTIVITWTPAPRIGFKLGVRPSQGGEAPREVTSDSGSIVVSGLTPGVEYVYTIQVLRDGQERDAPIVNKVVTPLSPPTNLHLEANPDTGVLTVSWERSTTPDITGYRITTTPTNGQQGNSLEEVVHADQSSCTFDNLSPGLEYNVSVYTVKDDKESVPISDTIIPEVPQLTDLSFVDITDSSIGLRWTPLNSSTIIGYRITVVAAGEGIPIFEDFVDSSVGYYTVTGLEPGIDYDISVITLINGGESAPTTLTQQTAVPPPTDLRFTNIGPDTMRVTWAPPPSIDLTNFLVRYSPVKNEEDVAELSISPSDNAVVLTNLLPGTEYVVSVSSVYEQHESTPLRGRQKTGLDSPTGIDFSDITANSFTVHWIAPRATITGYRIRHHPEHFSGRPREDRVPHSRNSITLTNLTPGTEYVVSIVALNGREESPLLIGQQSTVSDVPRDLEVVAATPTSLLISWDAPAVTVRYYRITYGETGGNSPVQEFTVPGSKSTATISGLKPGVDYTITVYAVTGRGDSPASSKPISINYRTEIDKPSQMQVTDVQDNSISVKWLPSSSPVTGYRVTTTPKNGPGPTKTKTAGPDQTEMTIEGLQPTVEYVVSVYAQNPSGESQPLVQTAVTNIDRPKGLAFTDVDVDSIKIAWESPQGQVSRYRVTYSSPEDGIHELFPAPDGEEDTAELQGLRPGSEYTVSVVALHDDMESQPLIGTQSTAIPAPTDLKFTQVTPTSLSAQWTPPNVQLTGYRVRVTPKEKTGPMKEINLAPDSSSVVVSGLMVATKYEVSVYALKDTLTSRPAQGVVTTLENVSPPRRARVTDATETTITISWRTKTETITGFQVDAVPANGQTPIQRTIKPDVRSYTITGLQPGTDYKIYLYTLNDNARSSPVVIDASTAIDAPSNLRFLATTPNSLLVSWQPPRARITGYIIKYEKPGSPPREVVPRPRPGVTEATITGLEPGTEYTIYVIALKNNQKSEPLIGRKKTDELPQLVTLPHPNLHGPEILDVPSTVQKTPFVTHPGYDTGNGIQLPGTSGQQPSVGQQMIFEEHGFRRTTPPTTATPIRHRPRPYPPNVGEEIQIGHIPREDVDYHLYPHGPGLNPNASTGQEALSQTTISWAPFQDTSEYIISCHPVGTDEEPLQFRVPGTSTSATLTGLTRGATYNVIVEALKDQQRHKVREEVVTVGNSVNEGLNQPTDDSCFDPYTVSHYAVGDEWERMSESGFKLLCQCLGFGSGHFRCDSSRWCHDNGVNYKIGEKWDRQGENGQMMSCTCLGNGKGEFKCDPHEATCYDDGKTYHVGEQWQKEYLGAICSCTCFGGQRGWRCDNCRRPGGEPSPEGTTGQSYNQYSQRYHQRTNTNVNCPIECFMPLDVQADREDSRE

With “VA-21S, synthetic peptide of vitronectin residues 48-68 sulphated at residues 56 and 59” the inhibition by VA-21S of VA-26S-mediated adhesion of C751 Opc+ Nm to HBMECs (data not illustrated) [1] was 80%, the inhibition by VA-21S of VA-26S-mediated invasion of HBMECs by C751 Opc+ Nm (data not illustrated) [1] was 100% and the inhibition by VA-21S of VA-26S-mediated adhesion of piliated capsulate Opc+ MC58 to HBMECs (data not illustrated) [2] was 40%. The inhibition by VA-21S of VA-26S-mediated invasion of HBMECs by piliated capsulate Opc+ MC58 (data not illustrated) [2] was > 80%.
For “activated vitronectin (human), from normal human serum, purified by heparin-sepharose chromatography (natural protein)”, the percent depleted from serum after two adsorptions [3] was > 75% and the percent depleted from serum after three adsorptions [4] was 81%.
“fibronectin (human), of normal human serum and purified plasma fibronectin, P02751 32-2477 (natural protein)” gave a percent depleted from serum after three adsorptions [3] of 20%.
“vitronectin of normal human serum (total Vn, detected with polyclonal anti-Vn) (natural protein)” was tested, and the percent depleted from serum after three adsorptions [3] was 25%.
